In patent US20260327304 (published 2026) one finds Kd data, which are given here for six molecules.

The target of one experiment is T1, human CD3 protein (human).
T1 chain: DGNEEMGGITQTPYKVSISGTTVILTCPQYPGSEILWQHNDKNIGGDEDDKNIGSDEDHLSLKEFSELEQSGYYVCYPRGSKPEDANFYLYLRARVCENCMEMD
In words: BLI. (In BLI a coated tip is dipped into the sample, and binding shifts an interference pattern.)

Experiment [1] deals with T2, cynomolgus monkey CD3 protein (cynomolgus monkey).
T2 chain: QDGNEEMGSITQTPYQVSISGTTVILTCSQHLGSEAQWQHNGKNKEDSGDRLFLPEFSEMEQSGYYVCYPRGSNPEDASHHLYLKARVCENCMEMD
In words: BLI.

B1: huB1G5-ScFv-2VHH (CD3 arm) (antibody)
chain: EVQLVESGGGLVQPGGSLKLSCAASGFTFSTYAMNWVRQAPGKGLEWVGRIRSKYNNYATYYADSVKDRFTISRDDSKNTLYLQMNSLKTEDTAVYYCTRHGNFGNSYVSWFAYWGQGTTVTVSSGGGGSGGGGSGGGGSQAVVTQEPSLTVSPGGTVTLTCRSSTGAVTTSNYANWVQQKPGQAPRGLIGGTNKRAPGVPARFSGSLLGGKAALTLSGAQPEDEAEYFCALWYSNLWVFGGGTKLTVLG
The Kd is a measure of binding affinity in units of concentration. For B1, binding with human CD3 protein was characterised by a dissociation constant (Kd) of 35.7 nM.

B2: huB1G5-ScFv-2VHH (CD3 arm) (antibody)
chain: EVQLVESGGGLVQPGGSLKLSCAASGFTFSTYAMNWVRQAPGKGLEWVGRIRSKYNNYATYYADSVKDRFTISRDDSKNTLYLQMNSLKTEDTAVYYCTRHGNFGNSYVSWFAYWGQGTTVTVSSGGGGSGGGGSGGGGSQAVVTQEPSLTVSPGGTVTLTCRSSTGAVTTSNYANWVQQKPGQAPRGLIGGTNKRAPGVPARFSGSLLGGKAALTLSGAQPEDEAEYFCALWYSNLWVFGGGTKLTVLG
modifications: ACRO CDD-C52W4
In experiment [1], B2 yielded a Kd of 28.2 nM.

B3: huB1G5-CD3Fab (CD3 arm) (antibody, V domains shown)
VH: EVQLVESGGGLVQPGGSLKLSCAASGFTFSTYAMNWVRQAPGKGLEWVGRIRSKYNNYATYYADSVKDRFTISRDDSKNTLYLQMNSLKTEDTAVYYCTRHGNFGNSYVSWFAYWGQGTTVTVSS
VL: QAVVTQEPSLTVSPGGTVTLTCRSSTGAVTTSNYANWVQQKPGQAPRGLIGGTNKRAPGVPARFSGSLLGGKAALTLSGAQPEDEAEYFCALWYSNLWVFGGGTKLTVL
In the experiment with human CD3 protein, B3 displayed a Kd of 26.3 nM.

B4: huB1G5-CD3Fab (CD3 arm) (antibody, V domains shown)
VH: EVQLVESGGGLVQPGGSLKLSCAASGFTFSTYAMNWVRQAPGKGLEWVGRIRSKYNNYATYYADSVKDRFTISRDDSKNTLYLQMNSLKTEDTAVYYCTRHGNFGNSYVSWFAYWGQGTTVTVSS
VL: QAVVTQEPSLTVSPGGTVTLTCRSSTGAVTTSNYANWVQQKPGQAPRGLIGGTNKRAPGVPARFSGSLLGGKAALTLSGAQPEDEAEYFCALWYSNLWVFGGGTKLTVL
modifications: ACRO CDD-C52W4
In experiment [1], B4 had a Kd of 6.59 nM.

B5: huB1G5-CD3-2VHH (CD3 arm) (antibody, V domains shown)
VH: EVQLVESGGGLVQPGGSLKLSCAASGFTFSTYAMNWVRQAPGKGLEWVGRIRSKYNNYATYYADSVKDRFTISRDDSKNTLYLQMNSLKTEDTAVYYCTRHGNFGNSYVSWFAYWGQGTTVTVSS
VL: QAVVTQEPSLTVSPGGTVTLTCRSSTGAVTTSNYANWVQQKPGQAPRGLIGGTNKRAPGVPARFSGSLLGGKAALTLSGAQPEDEAEYFCALWYSNLWVFGGGTKLTVL
B5 came in with a Kd with human CD3 protein of 22.6 nM.

B6: huB1G5-CD3-2VHH (CD3 arm) (antibody, V domains shown)
VH: EVQLVESGGGLVQPGGSLKLSCAASGFTFSTYAMNWVRQAPGKGLEWVGRIRSKYNNYATYYADSVKDRFTISRDDSKNTLYLQMNSLKTEDTAVYYCTRHGNFGNSYVSWFAYWGQGTTVTVSS
VL: QAVVTQEPSLTVSPGGTVTLTCRSSTGAVTTSNYANWVQQKPGQAPRGLIGGTNKRAPGVPARFSGSLLGGKAALTLSGAQPEDEAEYFCALWYSNLWVFGGGTKLTVL
modifications: ACRO CDD-C52W4
For B6, the Kd in experiment [1] was found to be 6.92 nM.
